In patent US20130078661:

What was measured:
[1] = target: T1, L-VWF (Venus - VWF 1496-1670 - Cerulean - His tag FRET protein)
T1 chain: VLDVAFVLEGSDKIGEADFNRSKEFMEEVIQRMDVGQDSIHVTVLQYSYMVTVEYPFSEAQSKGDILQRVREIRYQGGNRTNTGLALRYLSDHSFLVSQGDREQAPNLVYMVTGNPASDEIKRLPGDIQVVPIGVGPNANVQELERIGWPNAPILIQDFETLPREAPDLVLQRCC

[2] = target: T2, S-VWF (Venus - VWF 1558-1670 - Cerulean - His tag FRET protein)
T2 chain: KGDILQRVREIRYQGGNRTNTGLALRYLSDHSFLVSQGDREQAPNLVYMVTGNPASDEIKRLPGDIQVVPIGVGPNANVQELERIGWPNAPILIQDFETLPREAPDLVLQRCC

[3] = target: Mutant VWF-A2 FRET protein with a change at Pro1645 (P1645A)
[4] = target: T3, XS-VWF(AA) (XS-VWF with Y1605-M1606 replaced by A1605-A1606)
T3 chain: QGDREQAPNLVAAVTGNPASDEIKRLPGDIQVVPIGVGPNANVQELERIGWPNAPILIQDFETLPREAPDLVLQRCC

[5] = target: T4, XS-VWF (Venus - VWF 1594-1670 - Cerulean - His tag FRET protein)
T4 chain: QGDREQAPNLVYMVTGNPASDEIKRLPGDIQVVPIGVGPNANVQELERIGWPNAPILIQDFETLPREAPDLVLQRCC

[6] = target: T5, M-VWF (Venus - VWF 1530-1670 - Cerulean - His tag FRET protein)
T5 chain: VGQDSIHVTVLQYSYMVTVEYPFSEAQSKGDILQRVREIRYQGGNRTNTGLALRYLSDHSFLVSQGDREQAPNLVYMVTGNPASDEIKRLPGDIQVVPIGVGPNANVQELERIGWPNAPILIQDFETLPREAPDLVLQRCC

[7] = target: Multimeric human plasma VWF
[8] = target: Mutant VWF-A2 FRET protein with Cysteine to Glycine at positions 1669 and 1670 (CC1669-70GG)

B1: Recombinant human ADAMTS13 (protein)
chain: AAGGILHLELLVAVGPDVFQAHQEDTERYVLTNLNIGAELLRDPSLGAQFRVHLVKMVILTEPEGAPNITANLTSSLLSVCGWSQTINPEDDTDPGHADLVLYITRFDLELPDGNRQVRGVTQLGGACSPTWSCLITEDTGFDLGVTIAHEIGHSFGLEHDGAPGSGCGPSGHVMASDGAAPRAGLAWSPCSRRQLLSLLSAGRARCVWDPPRPQPGSAGHPPDAQPGLYYSANEQCRVAFGPKAVACTFAREHLDMCQALSCHTDPLDQSSCSRLLVPLLDGTECGVEKWCSKGRCRSLVELTPIAAVHGRWSSWGPRSPCSRSCGGGVVTRRRQCNNPRPAFGGRACVGADLQAEMCNTQACEKTQLEFMSQQCARTDGQPLRSSPGGASFYHWGAAVPHSQGDALCRHMCRAIGESFIMKRGDSFLDGTRCMPSGPREDGTLSLCVSGSCRTFGCDGRMDSQQVWDRCQVCGGDNSTCSPRKGSFTAGRAREYVTFLTVTPNLTSVYIANHRPLFTHLAVRIGGRYVVAGKMSISPNTTYPSLLEDGRVEYRVALTEDRLPRLEEIRIWGPLQEDADIQVYRRYGEEYGNLTRPDITFTYFQPKPRQAWVWAAVRGPCSVSCGAGLRWVNYSCLDQARKELVETVQCQGSQQPPAWPEACVLEPCPPYWAVGDFGPCSASCGGGLRERPVRCVEAQGSLLKTLPPARCRAGAQQPAVALETCNPQPCPARWEVSEPSSCTSAGGAGLALENETCVPGADGLEAPVTEGPGSVDEKLPAPEPCVGMSCPPGWGHLDATSAGEKAPSPWGSIRTGAQAAHVWTPAAGSCSVSCGRGLMELRFLCMDSALRVPVQEELCGLASKPGSRREVCQAVPCPARWQYKLAACSVSCGRGVVRRILYCARAHGEDDGEEILLDTQCQGLPRPEPQEACSLEPCPPRWKVMSLGPCSASCGLGTARRSVACVQLDQGQDVEVDEAACAALVRPEASVPCLIADCTYRWHVGTWMECSVSCGDGIQRRRDTCLGPQAQAPVPADFCQHLPKPVTVRGCWAGPCVGQGTPSLVPHEEAAAPGRTTATPAGASLEWSQARGLLFSPAPQPRRLLPGPQENSVQSSACGRQHLEPTGTIDMRGPGQADCAVAIGRPLGEVVTLRVLESSLNCSAGDMLLLWGRLTWRKMCRKLLDMTFSSKTNTLVVRQRCGRPGGGVLLRYGSQLAPETFYRECDMQLFGPWGEIVSPSLSPATSNAGGCRLFINVAPHARIAIHALATNMGAGTEGANASYILIRDTHSLRTTAFHGQQVLYWESESSQAEMEFSEGFLKAQASLRGQYWTLQSWVPEMQDPQSWKGKEGT
FRET ratio after 1 h with ADAMTS13, no denaturant [1]: There was very little change in the FRET ratio of ... L-VWF
cleavage at 2M urea after pre-denaturation with 4M urea [1]: >90% cleavage of L-VWF was observed at 2M urea upon inclusion of the pre-denaturation step
extent of cleavage, no urea [1]: In the absence of urea, the extent of cleavage of both L- and M-VWF was 20%
proteolysis at 1.6M urea [1]: Increasing urea concentration to 1.6M resulted in 30% proteolysis
FRET ratio after 1 h with ADAMTS13, no denaturant [2]: from 1.24 to 1.84 for S-VWF
extent of cleavage (FRET ratio and western blot), varying urea [2]: Complete cleavage of XS-VWF and S-VWF was observed at urea concentrations <2.8M
cleavage in 1M urea, western blot [3]: changes in the Pro1645 site enhances VWF cleavage even in the presence of low concentrations of urea that are insufficient to cleave the wild-type protein
FRET ratio after 1 h with ADAMTS13, no denaturant [4]: There was very little change in the FRET ratio of ... XS-VWF(AA)
cleavage, western blot with anti-his pAb [4]: XS-VWF but not XS-VWF(AA) was cleaved by recombinant ADAMTS13
FRET ratio after 1 h with ADAMTS13, no denaturant [5]: FRET ratio increased from 0.78 to 1.73 for XS-VWF
cleavage, western blot with anti-his pAb [5]: XS-VWF but not XS-VWF(AA) was cleaved by recombinant ADAMTS13
extent of cleavage (FRET ratio and western blot), varying urea [5]: Complete cleavage of XS-VWF and S-VWF was observed at urea concentrations <2.8M
FRET ratio after 1 h with ADAMTS13, no denaturant [6]: There was very little change in the FRET ratio of M-VWF
extent of cleavage, no urea [6]: In the absence of urea, the extent of cleavage of both L- and M-VWF was 20%
proteolysis at 1.6M urea [6]: Increasing urea concentration to 1.6M resulted in 30% proteolysis
cleavage after pre-denaturation with 4M urea, western blot [7]: Proteolysis was however complete at urea>2.4M, provided a pre-denaturation step was included
cleavage without pre-denaturation, western blot [7]: multimeric VWF was also not fully cleaved when the protein was incubated with varying urea concentrations and ADAMTS13
cleavage in 1M urea, western blot [8]: substitution of Cysteine by Glycine at positions 1669 and 1670 enhances VWF A2 domain proteolysis

B2: ADAMTS13 in human plasma (protein)
chain: AAGGILHLELLVAVGPDVFQAHQEDTERYVLTNLNIGAELLRDPSLGAQFRVHLVKMVILTEPEGAPNITANLTSSLLSVCGWSQTINPEDDTDPGHADLVLYITRFDLELPDGNRQVRGVTQLGGACSPTWSCLITEDTGFDLGVTIAHEIGHSFGLEHDGAPGSGCGPSGHVMASDGAAPRAGLAWSPCSRRQLLSLLSAGRARCVWDPPRPQPGSAGHPPDAQPGLYYSANEQCRVAFGPKAVACTFAREHLDMCQALSCHTDPLDQSSCSRLLVPLLDGTECGVEKWCSKGRCRSLVELTPIAAVHGRWSSWGPRSPCSRSCGGGVVTRRRQCNNPRPAFGGRACVGADLQAEMCNTQACEKTQLEFMSQQCARTDGQPLRSSPGGASFYHWGAAVPHSQGDALCRHMCRAIGESFIMKRGDSFLDGTRCMPSGPREDGTLSLCVSGSCRTFGCDGRMDSQQVWDRCQVCGGDNSTCSPRKGSFTAGRAREYVTFLTVTPNLTSVYIANHRPLFTHLAVRIGGRYVVAGKMSISPNTTYPSLLEDGRVEYRVALTEDRLPRLEEIRIWGPLQEDADIQVYRRYGEEYGNLTRPDITFTYFQPKPRQAWVWAAVRGPCSVSCGAGLRWVNYSCLDQARKELVETVQCQGSQQPPAWPEACVLEPCPPYWAVGDFGPCSASCGGGLRERPVRCVEAQGSLLKTLPPARCRAGAQQPAVALETCNPQPCPARWEVSEPSSCTSAGGAGLALENETCVPGADGLEAPVTEGPGSVDEKLPAPEPCVGMSCPPGWGHLDATSAGEKAPSPWGSIRTGAQAAHVWTPAAGSCSVSCGRGLMELRFLCMDSALRVPVQEELCGLASKPGSRREVCQAVPCPARWQYKLAACSVSCGRGVVRRILYCARAHGEDDGEEILLDTQCQGLPRPEPQEACSLEPCPPRWKVMSLGPCSASCGLGTARRSVACVQLDQGQDVEVDEAACAALVRPEASVPCLIADCTYRWHVGTWMECSVSCGDGIQRRRDTCLGPQAQAPVPADFCQHLPKPVTVRGCWAGPCVGQGTPSLVPHEEAAAPGRTTATPAGASLEWSQARGLLFSPAPQPRRLLPGPQENSVQSSACGRQHLEPTGTIDMRGPGQADCAVAIGRPLGEVVTLRVLESSLNCSAGDMLLLWGRLTWRKMCRKLLDMTFSSKTNTLVVRQRCGRPGGGVLLRYGSQLAPETFYRECDMQLFGPWGEIVSPSLSPATSNAGGCRLFINVAPHARIAIHALATNMGAGTEGANASYILIRDTHSLRTTAFHGQQVLYWESESSQAEMEFSEGFLKAQASLRGQYWTLQSWVPEMQDPQSWKGKEGT
KM [2]: 1.8 µM
kcat [2]: 0.295 s⁻¹
cleavage by FRET, 20% human plasma, 2 hours, 2M urea [3]: higher cleavage of mutant VWF proteins compared to the wild-type molecule upon addition of low concentrations of urea
KM [5]: 4.6 µM and KM=4 µM
kcat [5]: 0.747 s⁻¹
cleavage by FRET, 20% human plasma, 2 hours, 2M urea [8]: higher cleavage of mutant VWF proteins compared to the wild-type molecule upon addition of low concentrations of urea
